Data as given in US20210395344A1 (TWIST BIOSCIENCE, published 2021).
Like-named read-outs stand apart in the source and are kept apart here.

Legend:
[1] = target: T1, SARS-CoV-2 Spike Glycoprotein S1 (subunit 1) (SARS-CoV-2, UniProt P0DTC2 16-685); assay: column Inhibitor IC50 (assay not explained)
T1 construct: also called S1 Monomer; SARS-CoV-2 S1

[2] = target: T1, SARS-CoV-2 Spike Glycoprotein S1 …; assay: screening phage ELISA, mean
[3] = target: T1, SARS-CoV-2 Spike Glycoprotein S1 …; assay: screening phage ELISA, mean; remark: listed apart in the source
[4] = target: T1, SARS-CoV-2 Spike Glycoprotein S1 …; assay: column DC/S1 (format not explained)
[5] = target: T1, SARS-CoV-2 Spike Glycoprotein S1 …; assay: ELISA binding titration
[6] = target: T2, SARS-CoV-2 S1 (antigen of the Carterra SPR kinetics) (SARS-CoV-2, UniProt P0DTC2 16-685); assay: Carterra SPR
[7] = target: T2, SARS-CoV-2 S1 (antigen of the Carterra …); assay: Carterra SPR; remark: listed apart in the source
S1-Fc [8] = target: T3, S1-Fc (SARS-CoV-2, UniProt P0DTC2 16-685); assay: phage ELISA
[9] = target: T4, COVID S1 RBM Fc fusion (Antigen 2) (SARS-CoV-2, UniProt P0DTC2 437-508); assay: phage ELISA
T4 construct: domain: RBM

S1-Fc [10] = target: T3, S1-Fc; assay: phage ELISA; remark: listed apart in the source
[11] = target: T4, COVID S1 RBM Fc fusion (Antigen 2); assay: phage ELISA; remark: listed apart in the source

Binder | IC50 [1] | ELISA (Avg) [2] | ELISA (Avg) [3] | EC50 [5] | other results
1-8 (antibody, V domains shown) VH: EVQLLESGGGLVQPGGSLRLSCAASGFTFSSYDMSWVRQAPGKGLEWVSVISGSGGSTYYADSVKGRFTISRDNSKNTLYLQMNSLRAEDTAVYYCAKGPLVGWYFDLWGQGTLVTVSS VL: QSALTQPASVSGSPGQSITISCTGTSNDVGSYNLVSWYQQHPGKAPKLMIYEGSKRPSGVSNRFSGSKSGNTASLTISGLQAEDEADYYCCSYAGSRYVVFGGGTKLTVL | 97.3 nM | 19.3 | 19.3 |  | 
1-30 (antibody, V domains shown) VH: EVQLLESGGGLVQPGGSLRLSCAASGFTFSSYAMTWVRQAPGKGLEWVSAISGSGGSTFYADSVKGRFTISRDNSKNTLYLQMNSLRAEDTAVYYCTRPPYGDYGDYWGQGTLVTVSS VL: QSALTQPASVSGSPGQSITISCTGTSRDVGSYNLVSWYQQHPGKAPKLMIYEGTKRPSGVSNRFSGSKSGNTASLTISGLQAEDEADYYCCSYAGSRTPVVFGGGTKLTVL | 25.3 nM | 29.5 | 29.5 |  | Kd [4]: 4.7 nM
1-26 (antibody, V domains shown) VH: EVQLLESGGGLVQPGGSLRLSCAASGFTFSSYAISWVRQAPGKGLEWVSAISGSGYSTYYADSVKGRFTISRDNSKNTLYLQMNSLRAEDTAVYYCARGAPDSSGYYFQGEVYFDYWGQGTLVTVSS VL: QSALTQPASVSGSPGQSITISCTGTSSDVGGYNLVSWYQQHPGKAPKLMIYEGTKRPSGVSNRFSGSKSGNTASLTISGLQAEDEADYYCCSFVRSSAHVVFGGGTKLTVL | 8 nM | 19.5 | 19.5 | 48.5 nM | 
1-10 (antibody, V domains shown) VH: EVQLLESGGGLVQPGGSLRLSCAASGFTFSSYDMSWVRQAPGKGLEWVSVISGSGGSTYYADSVKGRFTISRDNSKNTLYLQMNSLRAEDTAVYYCAKGPLVGWYFDLWGQGTLVTVSS VL: QSALTQPASVSGSPGQSITISCTGTSSNVGSYNLVSWYQQHPGKAPKLMIYEGTKRPSGVSNRFSGSKSGNTASLTISGLQAEDEADYYCCSYAGSSSFVVFGGGTKLTVL | 17.7 nM | 16.9 | 16.9 |  | 
1-32 (antibody, V domains shown, also called variant 1-32) VH: EVQLLESGGGLVQPGGSLRLSCAASGFTFSSYAMYWVRQAPGKGLEWVSAISGSGGSTFYADSVKGRFTISRDNSKNTLYLQMNSLRAEDTAVYYCTRPPYGDYGDYWGQGTLVTVSS VL: QSALTQPASVSGSPGQSITISCTGTSSDVGGYNLVSWYQQHPGKAPKLMIYEGNKRPSGVSNRFSGSKSGNTASLTISGLQAEDEADYYCCSYAGSSTFPVVFGGGTKLTVL |  |  |  |  | koff [6]: 0.317 s⁻¹; kon [6]: 5.49e+06 M⁻¹ s⁻¹; Kd [7]: 57.8 nM; koff [7]: 0.317 s⁻¹; kon [7]: 5.49e+06 M⁻¹ s⁻¹; ELISA fold over background (S1-Fc [8]): 4 fold over background; ELISA fold over background [9]: 1.1 fold over background; ELISA fold over background (S1-Fc [10]): 4 fold over background; ELISA fold over background [11]: 1.1 fold over background
1-9 (antibody, V domains shown) VH: EVQLLESGGGLVQPGGSLRLSCAASGFTFSSYDMSWVRQAPGKGLEWVSVISGSGGSTYYADSVKGRFTISRDNSKNTLYLQMNSLRAEDTAVYYCAKGPLVGWYFDLWGQGTLVTVSS VL: QSALTQPASVSGSPGQSITISCTGTSSDVGDYNLVSWYQQHPGKAPKLMIYEGSNRPSGVSNRFSGSKSGNTASLTISGLQAEDEADYYCCSYAGSSSFVVFGGGTKLTVL | 282 nM | 18.5 | 18.5 |  | 
1-3 (antibody, V domains shown) VH: EVQLLESGGGLVQPGGSLRLSCAASGFTFSSQAMSWVRQAPGKGLEWVSAISGSGGGTYYADSVKGRFTISRDNSKNTLYLQMNSLRAEDTAVYYCAKDRRFGEFDPWGQGTLVTVSS VL: QSALTQPASVSGSPGQSITISCTGISSDVGSYNLVSWYQQHPGKAPKLMIYEGTKRPSGVSNRFSGSKSGNTASLTISGLQAEDEADYYCCSYAGSSSFVVFGGGTKLTVL | 15.7 nM | 23.9 | 23.9 | 0.133 nM | Kd [4]: 253 nM
1-28 (antibody, V domains shown, also called variant 1-28) VH: EVQLLESGGGLVQPGGSLRLSCAASGFTFSSYGMSWVRQAPGKGLEWVSAISGSGGGTYYADSVKGRFTISRDNSKNTLYLQMNSLRAEDTAVYYCASSSSWQFDYWGQGTLVTVSS VL: QSALTQPASVSGSPGQSITISCTGTSSGVGSYNLVSWYQQHPGKAPKLMIYEGSQRPSGVSNRFSGSKSGNTASLTISGLQAEDEADYYCCSYAGSSTHYVFGGGTKLTVL |  |  |  |  | koff [6]: 9.05 s⁻¹; kon [6]: 1.23e+08 M⁻¹ s⁻¹; Kd [7]: 73.5 nM; koff [7]: 9.05 s⁻¹; kon [7]: 1.23e+08 M⁻¹ s⁻¹; ELISA fold over background (S1-Fc [8]): 1.1 fold over background; ELISA fold over background [9]: 1.2 fold over background; ELISA fold over background (S1-Fc [10]): 1.1 fold over background; ELISA fold over background [11]: 1.2 fold over background
1-5 (antibody, V domains shown) VH: EVQLLESGGGLVQPGGSLRLSCAASGFTFSSQAMSWVRQAPGKGLEWVSAISGSGGGTYYADSVKGRFTISRDNSKNTLYLQMNSLRAEDTAVYYCAKDRRFGEFDPWGQGTLVTVSS VL: QSALTQPASVSGSPGQSITISCTGTSSGVGSYNLVSWYQQHPGKAPKLMIYEASKRPSGVSNRFSGSKSGNTASLTISGLQAEDEADYYCCSYAGSYTFAVFGGGTKLTVL |  | 20.6 | 20.6 | 7.83 nM | 
1-7 (antibody, V domains shown) VH: EVQLLESGGGLVQPGGSLRLSCAASGFTFSSYDMSWVRQAPGKGLEWVSVISGSGGSTYYADSVKGRFTISRDNSKNTLYLQMNSLRAEDTAVYYCAKGPLVGWYFDLWGQGTLVTVSS VL: QSALTQPASVSGSPGQSITISCTGTSSDFGSYNLVSWYQQHPGKAPKLMIYEGNKRPSGVSNRFSGSKSGNTASLTISGLQAEDEADYYCCSYAGSSTFVVFGGGTKLTVL |  | 22.5 | 22.5 | 95.7 nM | 
1-52 (antibody, V domains shown) VH: EVQLLESGGGLVQPGGSLRLSCAASGFTFSNYAMSWVRQAPGKGLEWVSAISGSAGSTYYADSVKGRFTISRDNSKNTLYLQMNSLRAEDTAVYYCARVRQGLRRTWYYFDYWGQGTLVTVSS VL: QSALTQPASVSGSPGQSITISCTGTSSDVGSSNLVSWYQQHPGKAPKLMIYEGSKRPSGVSNRFSGSKSGNTASLTISGLQAEDEADYYCCSYAGSLYVFGGGTKLTVL | 740 nM | 3.5 | 3.5 |  | 
1-21 (antibody, V domains shown) VH: EVQLLESGGGLVQPGGSLRLSCAASGFTFSSYTMSWVRQAPGKGLEWVSIISGSGGSTYYADSVKGRFTISRDNSKNTLYLQMNSLRAEDTAVYYCAREGYRDYLWYFDLWGQGTLVTVSS VL: QSALTQPASVSGSPGQSITISCTGTSSDVGSNNLVSWYQQHPGKAPKLMIYEGNKRPSGVSNRFSGSKSGNTASLTISGLQAEDEADYYCCSYAGSVVFGGGTKLTVL | 6.7 nM | 47.6 | 47.6 |  | 
1-24 (antibody, V domains shown) VH: EVQLLESGGGLVQPGGSLRLSCAASGFTFSSYAMNWVRQAPGKGLEWVSIISGSGGSTYYADSVKGRFTISRDNSKNTLYLQMNSLRAEDTAVYYCAREGYRDYLWYFDLWGQGTLVTVSS VL: QSALTQPASVSGSPGQSITISCTGTSSDVGYYNLVSWYQQHPGKAPKLMIYEGNKRPSGVSNRFSGSKSGNTASLTISGLQAEDEADYYCCSYAGGSVVFGGGTKLTVL |  | 32.9 | 32.9 |  | Kd [4]: 2040 nM
1-51 (antibody, V domains shown) VH: EVQLLESGGGLVQPGGSLRLSCAASGFTFSSYAMSWVRQAPGKGLEWVSVISGSGGSTYYADSVKGRFTISRDNSKNTLYLQMNSLRAEDTAVYYCAREGYRDYLWYFDLWGQGTLVTVSS VL: QSALTQPASVSGSPGQSITISCTGTSSDVGSYDLVSWYQQHPGKAPKLMIYEGNKRPSGVSNRFSGSKSGNTASLTISGLQAEDEADYYCCSYAGSSVVFGGGTKLTVL |  | 7.1 | 7.1 | 98.2 nM | 
1-22 (antibody, V domains shown) VH: EVQLLESGGGLVQPGGSLRLSCAASGFTFSSYAMNWVRQAPGKGLEWVSIISGSGGSTYYADSVKGRFTISRDNSKNTLYLQMNSLRAEDTAVYYCAREGYRDYLWYFDLWGQGTLVTVSS VL: QSALTQPASVSGSPGQSITISCTGTSTDVGSYNLVSWYQQHPGKAPKLMIYEGSQRPSGVSNRFSGSKSGNTASLTISGLQAEDEADYYCCSYAGSSTVFGGGTKLTVL | 73.2 nM | 40.6 | 40.6 | 6.55 nM | 
